Results published in patent US20170275350A1 (Scripps Research, published 2017).

T1: Protease activated receptor-1 (PAR1), endogenous on EA.hy.926 endothelial cells (human, UniProt P25116 42-425)
T1 sequence: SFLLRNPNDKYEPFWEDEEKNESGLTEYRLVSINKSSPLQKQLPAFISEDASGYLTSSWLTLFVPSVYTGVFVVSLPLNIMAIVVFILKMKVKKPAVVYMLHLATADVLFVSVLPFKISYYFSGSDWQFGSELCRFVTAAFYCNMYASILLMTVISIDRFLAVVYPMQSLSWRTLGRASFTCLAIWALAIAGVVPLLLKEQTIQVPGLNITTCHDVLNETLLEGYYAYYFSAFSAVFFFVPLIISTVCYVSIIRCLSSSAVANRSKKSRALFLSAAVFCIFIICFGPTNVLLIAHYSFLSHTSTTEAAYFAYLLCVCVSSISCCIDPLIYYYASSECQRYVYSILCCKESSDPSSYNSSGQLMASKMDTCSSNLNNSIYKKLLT


Columns and labels:
[1] = test system: Synthetic PAR1 N-terminal peptide TR33-62
[2] = molecular target: Protease activated receptor-1 (PAR1), endogenous on EA.hy.926 endothelial cells (human) (UniProt P25116); test: cell-based or functional assay
[3] = molecular target: T1, Protease activated receptor-1 (PAR1), …; test: cell-based or functional assay

Synthetic PAR1 N-terminal peptide TR33-62, sequence (chain, as listed by the source): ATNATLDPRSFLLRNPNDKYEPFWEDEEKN

ERK1/2 phosphorylation in EA.hy.926 cells (immunoblot, ratio to total ERK1/2) [3] [fold] | Molecule | cleavage of the peptide (reverse phase HPLC, MALDI-TOF of fragments) [1] | also measured
– | Activated Protein C | APC cleaves this PAR1 peptide at Arg^46 as well as at Arg^41 | –
– | Thrombin | the two fragments produced by thrombin (peaks A and D) corresponded to masses of 1,001 and 2,670 for cleavage at Arg^41 | –
– | Activated Protein C (from UniProt P04070 43-461) (enzyme) | – | ERK1/2 phosphorylation in EA.hy.926 cells (immunoblot, ratio to total ERK1/2) [2]: 1.5 fold; decrease of ATAP2 signal relative to WEDE15, on cell Western [2]: 50%
3 | TFLLRNPNDK [TFLL peptide (TR42-51 with S42T)] | – | –
1.5 | NPNDKYEPFWEDEEKNESGL [PAR1 peptide TR47-66] | – | –
